Source: article PMC12383448

Experiments:
[1] = molecular target: His12 (UniProt position 197, CHQQIHRNAPI); test: NMR
[2] = molecular target: His8 (UniProt position 193, ACLSCHQQIHR); test: NMR
[3] = 10 °C, not stated for the titration sample (the pH 6.0 zinc-binding NMR samples had no other added buffers or salts), not stated (no added buffer reported for the NMR samples), folded, Zn2+-bound (0.9 mM ZL with equimolar ZnCl2)

“ZC4H2 zinc finger peptide ZL (ZC4H2-ZL) (Homo sapiens)” was tested, and the pKa [1, 3] was 5.5 ± 0.1, the pKa ([1]; unfolded, zinc-free ZL peptide) was “near 6.0” and the pKa [2, 3] was 6.9 ± 0.1. The pKa ([2]; unfolded, zinc-free ZL peptide) was “near 6.0”.
